The target of one data set is T1, GST-EL (IP3R) (Mus musculus, UniProt P11881, N1264K).
T1 construct: construct a GST-IP3R1 (1-2217) vector (termed GST-EL); made in house; host or cells: GST-EL: Sf9 cells; His-IRBIT: Sf9 cells or E. coli
As to the kind of experiment: [3H]IP3 binding to GST-EL. As for the experimental part: (A) 0.2 μg of GST-EL was incubated with 0.1, 1, or 10 μg of purified His-tagged IRBIT expressed in Sf9 cells or E. coli in a solution containing 50 mM Tris-HCl (pH 8.0), 1 mM EDTA, and 1 mM 2-mercaptoethanol, for 30 min on ice. Then 8.7 nM [^3H]IP3 (PerkinElmer Life Sciences) was added to the samples and incubated for 10 min on ice (total volume was 50 μl). The samples were mixed with 2 μl of 50 mg/ml γ-globulin and 50 μl of 30% PEG6000, 50 mM Tris-HCl (pH 8.0), and incubated for 5 min on ice. Non-specific binding was measured in the presence of 10 μM cold IP3. After centrifugation at 20,000×g for 5 min, the precipitate was dissolved in SOLVABLE™ (Packard) and the radioactivity was measured with a liquid scintillation counter (Beckman Coulter). Results are shown as the mean±S.D. from three independent experiments. (B) Purified His-IRBIT expressed in Sf9 cells was incubated with alkaline phosphatase for 30 min at 37° C. prior to the IP3 binding assay described as in (A). (C and D) Scatchard analysis. 0.1 μg of GST-EL was incubated with or without 1 μg of purified His-tagged IRBIT expressed in Sf9 cells as described in (A). Then 2.17 nM [^3H]IP3 and 2-500 nM cold IP3 were added to the samples and incubated for 10 min on ice (total volume was 100 μl). Non-specific binding was measured in the presence of 10 μM cold IP3. [^3H]IP3 binding to GST-EL was measured as described in (A).
The effect of IRBIT on binding of IP3 to IP3R was examined. GST-EL (0.2 μg) was incubated with 0.1, 1, or 10 μg of purified His-tagged IRBIT expressed in Sf9 cells or E. coli in a solution containing 50 mM Tris-HCl (pH 8.0), 1 mM EDTA, and 1 mM 2-mercaptoethanol, for 30 min on ice. Then 8.7 nM [^3H]IP3 (PerkinElmer Life Sciences) was added to the samples and incubated for 10 min on ice (total volume was 50 μl). The samples were mixed with 2 μl of 50 mg/ml γ-globulin and 50 μl of 30% PEG6000, 50 mM Tris-HCl (pH 8.0), and incubated for 5 min on ice. Non-specific binding was measured in the presence of 10 μM cold IP3. After centrifugation at 20,000×g for 5 min, the precipitate was dissolved in SOLVABLE™ (Packard) and the radioactivity was measured with a liquid scintillation counter (Beckman Coulter). […] 0.1 μg of GST-EL was incubated with or without 1 μg of purified His-tagged IRBIT expressed in Sf9 cells as described in (A). Then 2.17 nM [^3H]IP3 and 2-500 nM cold IP3 were added to the samples and incubated for 10 min on ice (total volume was 100 μl). Non-specific binding was measured in the presence of 10 μM cold IP3. [^3H]IP3 binding to GST-EL was measured as described in (A). […] Bmax was not changed.

Data set [1] is described as follows: S-adenosylhomocysteine hydrolase activity in the hydrolytic direction. Type of data set: biochemical. As to conditions: recombinant protein expressed in Escherichia coli; hydrolysis direction. The method, then: The S-adenosylhomocysteine hydrolase activity in the hydrolytic direction of recombinant IRBIT-His (open circle), GST-IRBIT (triangle), GST (square), and S-adenosylhomocysteine hydrolase (closed circle) were measured according to the known method (43). Results are shown as the mean±standard deviation from three independent experimental results.
To assay S-adenosylhomocysteine hydrolase activity in the hydrolytic direction, the color developed by the reaction between the product (Homocysteine) and 5,5′-dithiobis (2-nitrobenzoic acid) (Sigma) was measured spectroscopically using the purified IRBIT-His (3.0 μg), GST-IRBIT (4.3 μg), GST (1.3 μg) and rabbit S-adenosylhomocysteine hydrolase (Sigma) (2.4 μg), according to the known method (43). Absorbance at 412 nm was measured 0, 5, 20 and 60 minutes later using a DU 640 spectrophotometer (Beckman). Results are shown as the mean±standard deviation from three independent experiments (FIG. 2).

Setting [2] is: 1 μg His-tagged IRBIT (Sf9), 0.1 μg GST-EL.

T1 sequence (P11881 1-2217 N1264K): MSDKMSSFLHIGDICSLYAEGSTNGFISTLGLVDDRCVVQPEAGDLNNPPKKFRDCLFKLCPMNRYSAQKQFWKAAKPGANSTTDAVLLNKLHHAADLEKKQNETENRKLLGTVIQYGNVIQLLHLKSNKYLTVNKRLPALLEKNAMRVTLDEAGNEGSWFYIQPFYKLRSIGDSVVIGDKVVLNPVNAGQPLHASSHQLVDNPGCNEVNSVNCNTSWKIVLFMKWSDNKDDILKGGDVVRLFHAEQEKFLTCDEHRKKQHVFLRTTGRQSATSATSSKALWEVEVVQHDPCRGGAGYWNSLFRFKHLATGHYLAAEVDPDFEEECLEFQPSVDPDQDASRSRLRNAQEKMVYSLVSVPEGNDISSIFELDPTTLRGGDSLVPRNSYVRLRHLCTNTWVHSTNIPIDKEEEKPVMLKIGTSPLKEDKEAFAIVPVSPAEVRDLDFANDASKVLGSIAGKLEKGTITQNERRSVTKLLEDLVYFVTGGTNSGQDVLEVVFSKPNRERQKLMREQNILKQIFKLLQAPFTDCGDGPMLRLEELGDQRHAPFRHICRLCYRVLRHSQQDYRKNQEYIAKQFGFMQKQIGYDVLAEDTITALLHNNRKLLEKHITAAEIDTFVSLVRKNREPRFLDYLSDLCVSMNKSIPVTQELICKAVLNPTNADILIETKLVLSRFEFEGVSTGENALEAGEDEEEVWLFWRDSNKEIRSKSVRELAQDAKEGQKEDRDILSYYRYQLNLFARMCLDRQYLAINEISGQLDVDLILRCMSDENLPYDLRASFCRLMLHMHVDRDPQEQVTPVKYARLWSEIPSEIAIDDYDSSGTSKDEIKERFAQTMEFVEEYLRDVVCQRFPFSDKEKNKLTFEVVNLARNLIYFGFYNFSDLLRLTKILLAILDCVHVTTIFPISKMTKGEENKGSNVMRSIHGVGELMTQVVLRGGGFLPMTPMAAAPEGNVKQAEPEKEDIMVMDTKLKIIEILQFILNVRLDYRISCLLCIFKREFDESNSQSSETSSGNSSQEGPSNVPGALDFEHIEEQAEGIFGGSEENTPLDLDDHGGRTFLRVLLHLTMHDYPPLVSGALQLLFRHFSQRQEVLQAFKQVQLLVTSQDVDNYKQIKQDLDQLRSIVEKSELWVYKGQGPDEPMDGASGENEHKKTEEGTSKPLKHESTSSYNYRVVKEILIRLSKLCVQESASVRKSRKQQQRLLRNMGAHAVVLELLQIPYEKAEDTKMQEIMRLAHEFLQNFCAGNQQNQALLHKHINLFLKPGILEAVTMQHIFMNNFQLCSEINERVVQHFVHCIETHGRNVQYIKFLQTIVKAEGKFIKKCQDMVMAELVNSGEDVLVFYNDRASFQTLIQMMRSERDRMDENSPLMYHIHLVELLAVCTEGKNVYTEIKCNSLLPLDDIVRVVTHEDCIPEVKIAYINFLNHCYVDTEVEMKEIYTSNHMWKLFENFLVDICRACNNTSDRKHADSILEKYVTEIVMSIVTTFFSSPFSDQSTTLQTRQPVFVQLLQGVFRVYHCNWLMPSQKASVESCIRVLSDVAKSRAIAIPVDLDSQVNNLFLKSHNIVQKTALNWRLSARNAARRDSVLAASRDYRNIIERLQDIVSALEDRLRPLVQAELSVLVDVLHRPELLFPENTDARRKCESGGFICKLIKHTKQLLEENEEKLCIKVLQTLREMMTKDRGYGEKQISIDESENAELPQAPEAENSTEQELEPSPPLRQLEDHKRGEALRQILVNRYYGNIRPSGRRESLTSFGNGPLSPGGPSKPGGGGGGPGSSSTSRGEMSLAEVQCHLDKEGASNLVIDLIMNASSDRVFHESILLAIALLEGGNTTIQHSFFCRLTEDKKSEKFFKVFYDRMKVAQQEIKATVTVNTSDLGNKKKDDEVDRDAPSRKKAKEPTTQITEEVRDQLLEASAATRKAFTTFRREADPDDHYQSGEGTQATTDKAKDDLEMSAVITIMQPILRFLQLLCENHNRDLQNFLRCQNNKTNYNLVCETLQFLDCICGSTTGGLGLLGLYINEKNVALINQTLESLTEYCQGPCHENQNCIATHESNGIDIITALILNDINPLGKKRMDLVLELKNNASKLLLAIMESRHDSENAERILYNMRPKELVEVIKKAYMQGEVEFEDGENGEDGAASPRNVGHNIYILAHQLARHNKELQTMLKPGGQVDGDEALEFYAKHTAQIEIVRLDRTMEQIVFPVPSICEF

B1: His-IRBIT: purified His-tagged IRBIT expressed in Sf9 cells (protein)
chain: MSMPDAMPLPGVGEELKQAKEIEDAEKYSFMATVTKAPKKQIQFADDMQEFTKFPTKTGRRSLSRSISQSSTDSYSSAASYTDSSDDEVSPREKQQTNSKGSSNFCVKNIKQAEFGRREIEIAEQDMSALISLRKRAQGEKPLAGAKIVGCTHITAQTAVLIETLCALGAQCRWSACNIYSTQNEVAAALAEAGVAVFAWKGESEDDFWWCIDRCVNMDGWQANMILDDGGDLTHWVYKKYPNVFKKIRGIVEESVTGVHRLYQLSKAGKLCVPAMNVNDSVTKQKFDNLYCCRESILDGLKRTTDVMFGGKQVVVCGYGEVGKGCCAALKALGAIVYITEIDPICALQACMDGFRVVKLNEVIRQVDVVITCTGNKNVVTREHLDRMKNSCIVCNMGHSNTEIDVTSLRTPELTWERVRSQVDHVIWPDGKRVVLLAEGRLLNLSCSTVPTFVLSITATTQALALIELYNAPEGRYKQDVYLLPKKMDEYVASLHLPSFDAHLTELTDDQAKYLGLNKNGPFKPNYYRY
modifications: left off: small tags and cut ends
notes: purified His-tagged IRBIT expressed in Sf9 cells
Turning to B1, in the data set with GST-EL (IP3R) (setting [2]), the “Bmax (Scatchard analysis)” value was “not changed” and the “affinity of GST-EL to IP3 (Scatchard analysis)” value is “decreased the affinity”. Also, the “effect on IP3 binding of GST-EL” value in the data set with GST-EL (IP3R) (0.1, 1 or 10 μg His-tagged IRBIT expressed in Sf9, 8.7 nM [3H]IP3) was “dose-dependently suppressed”.

B2: IRBIT-His: C-terminally His-tagged full-length IRBIT expressed in Escherichia coli (protein, UniProt O43865 1-530, looked up)
chain: MSMPDAMPLPGVGEELKQAKEIEDAEKYSFMATVTKAPKKQIQFADDMQEFTKFPTKTGRRSLSRSISQSSTDSYSSAASYTDSSDDEVSPREKQQTNSKGSSNFCVKNIKQAEFGRREIEIAEQDMSALISLRKRAQGEKPLAGAKIVGCTHITAQTAVLIETLCALGAQCRWSACNIYSTQNEVAAALAEAGVAVFAWKGESEDDFWWCIDRCVNMDGWQANMILDDGGDLTHWVYKKYPNVFKKIRGIVEESVTGVHRLYQLSKAGKLCVPAMNVNDSVTKQKFDNLYCCRESILDGLKRTTDVMFGGKQVVVCGYGEVGKGCCAALKALGAIVYITEIDPICALQACMDGFRVVKLNEVIRQVDVVITCTGNKNVVTREHLDRMKNSCIVCNMGHSNTEIDVTSLRTPELTWERVRSQVDHVIWPDGKRVVLLAEGRLLNLSCSTVPTFVLSITATTQALALIELYNAPEGRYKQDVYLLPKKMDEYVASLHLPSFDAHLTELTDDQAKYLGLNKNGPFKPNYYRY
modifications: full-length C-terminal His tag
notes: C-terminally His-tagged full-length IRBIT expressed in Escherichia coli
Turning to B2, the S-adenosylhomocysteine hydrolase activity result in data set [1] was “neither of the recombinant IRBITs had enzyme activity”.

B3: GST-IRBIT: N-terminally GST-tagged full-length IRBIT expressed in Escherichia coli (protein, UniProt O43865 1-530, looked up)
chain: MSMPDAMPLPGVGEELKQAKEIEDAEKYSFMATVTKAPKKQIQFADDMQEFTKFPTKTGRRSLSRSISQSSTDSYSSAASYTDSSDDEVSPREKQQTNSKGSSNFCVKNIKQAEFGRREIEIAEQDMSALISLRKRAQGEKPLAGAKIVGCTHITAQTAVLIETLCALGAQCRWSACNIYSTQNEVAAALAEAGVAVFAWKGESEDDFWWCIDRCVNMDGWQANMILDDGGDLTHWVYKKYPNVFKKIRGIVEESVTGVHRLYQLSKAGKLCVPAMNVNDSVTKQKFDNLYCCRESILDGLKRTTDVMFGGKQVVVCGYGEVGKGCCAALKALGAIVYITEIDPICALQACMDGFRVVKLNEVIRQVDVVITCTGNKNVVTREHLDRMKNSCIVCNMGHSNTEIDVTSLRTPELTWERVRSQVDHVIWPDGKRVVLLAEGRLLNLSCSTVPTFVLSITATTQALALIELYNAPEGRYKQDVYLLPKKMDEYVASLHLPSFDAHLTELTDDQAKYLGLNKNGPFKPNYYRY
modifications: full-length N-terminal GST tag
notes: N-terminally GST-tagged full-length IRBIT expressed in Escherichia coli
In the case of B3, the S-adenosylhomocysteine hydrolase activity result in data set [1] is “neither of the recombinant IRBITs had enzyme activity”.

The record behind these values is patent US20050181450A1, “Novel inositol 1,4,5-trisphosphate (IP3) receptor-binding protein and an IP3 indicator” (priority 2002, published 2005).
